Assay results taken from publication PMC4479986, “An Alternative Phosphorylation Switch in Integrin β2 (CD18) Tail for Dok1 Binding” (Scientific Reports, 2015).
Square brackets hold non-standard residues; d marks the D form. Ends that are not written are not given here. Peptide text beside a SMILES is read from it. pS = N[C@@H](COP(=O)(O)O)C(=O)O

Assays:
Dok1 PTB domain = target: T1, Dok1 PTB domain (Homo sapiens, UniProt Q99704); assay: 15N-1H HSQC NMR chemical shift titration of Dok1 PTB domain with integrin β2 tail peptides; format: binding; conditions: Table 2; 15N-1H HSQC combined chemical shift perturbation, 0.7 mM 15N-Dok1 PTB domain, 50 mM sodium phosphate pH 6.0, 100 mM NaCl, 2 mM DTT, 20 min equilibration; depletion model fit; Kd ± S.E.; read-out: Dissociation constant Kd
T1 construct: Human Dok1 PTB domain (Q154 – G256; Swiss-Prot Q99704, number as Q1-G103); six His-tag (N); made in house; host or cells: Escherichia coli Rosetta
T1 sequence (Q99704 154-256): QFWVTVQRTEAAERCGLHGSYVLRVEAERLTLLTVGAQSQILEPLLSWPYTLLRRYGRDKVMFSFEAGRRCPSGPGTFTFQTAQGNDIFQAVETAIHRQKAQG
Protocol: Human Dok1 PTB domain (Q154 – G256; Swiss-Prot Q99704, number as Q1-G103) was sub-cloned into the pET14b vector with an N-terminal six His-tag. Escherichia coli Rosetta cells were transformed with the expression plasmid and grown at 37 °C either in LB or M9 medium containing [^15N] ammonium chloride (Cambridge Isotope Laboratories). Expression of recombinant protein was induced by adding 1 mM IPTG to cells (OD600 0.6–0.7) followed by incubation for 6–12 h at 16 °C. Cells were centrifuged and re-suspended in Buffer A (20 mM Tris-HCl buffer, pH 8.0) followed by affinity purification on a Nickel-NTA column (Qiagen). […] Proteins were eluted at a flow rate of 0.5 ml/min and monitored by absorbance at λ = 276 nm.
All NMR experiments were performed on a Bruker DRX 600 MHz spectrometer equipped with an actively shielded cryoprobe. NMR data were processed using the NMRPipe and NMRDraw suite and analysed by Sparky (T.D. Goddard and D.G. Kneller, University of California, San Francisco). […] The stock solutions of the above mentioned peptides were prepared in the same buffer (100 mM NaCl, 2 mM DTT, 50 mM sodium phosphate, pH 6.0) used for the Dok1 PTB domain NMR experiments, ^15N-^1H HSQC spectra were recorded at different protein:peptide molar ratios (1:0.1, 1:0.2, 1:0.3, 1:0.5, 1:1, 1:1.5, 1:2, 1:2.5 and 1:3) for all of the above mentioned peptides except for the unphosphorylated KT15. […]

[1] = Solubility of β2 tail peptide as observed in NMR sample preparation; format: physicochemical; conditions: at high concentrations, NMR buffer
[2] = target: T2, Human Dok1 PTB domain (Q154-G256) (human, UniProt Q99704 154-256); assay: NMR titration; 15N-1H HSQC of 15N-labelled Dok1 PTB domain at 0.7 mM, unlabelled peptide added (protein:peptide 1:0.1 to 1:3; KT15 1:0.5 to 1:6); 100 mM NaCl, 2 mM DTT, 50 mM sodium phosphate, pH 6.0; Kd from combined chemical shift changes, depletion model; apparent for KT15; conditions: both partners purified
T2 construct: Docking protein 1 (Dok1; p62Dok), human, PTB domain Q154-G256 of Swiss-Prot Q99704. numbers count on: the construct, renumbered Q1-G103 (Q154 = Q1); pET14b vector; no removal of the His tag is described; Residue numbers of the PTB domain in the results (Arg54, Arg69 ...) count on Q1-G103; also called PTB domain of Dok1; source: E. coli Rosetta, purified (Nickel-NTA, gel filtration on Superdex …)
T2 sequence (looked up): T1 sequence (Q99704 154-256)

[3] = tested on: Dok1-CFP / integrin β2-YFP association in K562 cells; assay: YFP-photobleach FRET between Dok1-CFP and integrin β2-YFP in K562 cells; format: cell-based, human; conditions: K562 stably expressing Dok1-CFP, transfected with integrin αL, β2-YFP and CCR5; RANTES 50 ng/ml, 10 min, 37 °C; 39 cells with, 60 without; p < 0.05
Protocol: K562 cells (ATCC, Manassas, VA) were cultured in RPMI1640 full-medium containing 10% (v/v) FBS and antibiotics. Cells (2 × 10^6) were transfected with integrin αL plasmid (9 μg), integrin β2-YFP plasmid (WT or mutant) (9 μg) and Dok1-CFP or CFP plasmid (12 μg) by electroporation using the Neon electroporation kit (Invitrogen) on a MP-100 pipette-type microporator (Invitrogen). YFP-photobleach FRET assay was performed essentially as described. Immunoblottings of transfected K562 lysates were performed using rabbit anti-GFP antibody (Life Technologies, Grand Island, NY), rabbit anti-Dok1 antibody (Abcam, Cambridge, MA) and HRP-conjugated goat anti-rabbit (Avansta, Menlo Park, CA) followed by ECL detection. To generate K562 cells stably expressing Dok1-CFP, cells were transfected with Dok1-CFP plasmid by electroporation followed by serial dilutions into 96-well cell culture microtitre plates to select for stable clones in the presence of antibiotic G418 (0.6 mg/ml). Clones expressing Dok1-CFP were screened by flow cytometry analyses and verified by immunoblotting with anti-GFP antibody (Life Technologies, Grand Island, NY). […] Samples were acquired and examined on a FACSCalibur flow cytometer and data analyzed using the Flowjo software (Tree Star Inc. Ashland, OR). […]

Q: Which Kd (Dok1 PTB domain) does the source give for `CC(C)C[C@H](NC(=O)[C@@H]1CCCN1C(=O)[C@H](CC(N)=O)NC(=O)[C@H](CC(=O)O)NC(=O)[C@H](CC(N)=O)NC(=O)[C@H](CC(N)=O)NC(=O)[C@H](Cc1c[nH]c2ccccc12)NC(=O)[C@H](CCC(N)=O)NC(=O)[C@H](CO)NC(=O)[C@@H](N)CCCCN)C(=O)N[C@@H](Cc1ccccc1)C(=O)N[C@@H](CCCCN)C(=O)N[C@@H](CO)C(=O)N[C@@H](C)C(=O)N[C@H](C(=O)O)[C@@H](C)O` [KT15] (H-KSQWNNDNPLFKSAT-OH) here?
A: Its Kd is 16000 ± 300 µM.

Q: For `CC(C)C[C@H](NC(=O)[C@@H]1CCCN1C(=O)[C@H](CC(N)=O)NC(=O)[C@H](CC(=O)O)NC(=O)[C@H](CC(N)=O)NC(=O)[C@H](CC(N)=O)NC(=O)[C@H](Cc1c[nH]c2ccccc12)NC(=O)[C@H](CCC(N)=O)NC(=O)[C@H](CO)NC(=O)[C@@H](N)CCCCN)C(=O)N[C@@H](Cc1ccccc1)C(=O)N[C@@H](CCCCN)C(=O)N[C@@H](COP(=O)(O)O)C(=O)N[C@@H](C)C(=O)N[C@H](C(=O)O)[C@@H](C)O` [pSer756-KT15] (H-KSQWNNDNPLFK[pS]AT-OH), which Kd (Dok1 PTB domain) is on record?
A: The Kd was 189 ± 30 µM.

Q: Which Solubility in words [1] does the source give for “KALIHLSDLREYRRFEKEKLKSQWNNDNPLFKSATTTVMNPKFAES [full-length unphosphorylated β2 tail, Synthetic full-length integrin β2 (CD18) cytoplasmic tail, residues 724-769]” here?
A: Its Solubility in words is “limited solubility”.

B1: Full-length integrin β2 tail peptide phosphorylated at Ser745 (peptide)
chain: KALIHLSDLREYRRFEKEKLK[pS]QWNNDNPLFKSATTTVMNPKFAES
Q: Which Kd [2] does the source give for B1 here?
A: The Kd was 215 µM.

B2: Full-length integrin β2 tail peptide phosphorylated at Ser756 (peptide)
chain: KALIHLSDLREYRRFEKEKLKSQWNNDNPLFK[pS]ATTTVMNPKFAES
Q: Which Kd [2] does the source give for B2 here?
A: Its Kd is 98 µM.

B3: RANTES: Chemokine, ligand of CCR5, used to activate cells (Calbiochem) (protein, UniProt P13501 24-91, looked up)
C-C motif chemokine 5: SPYSSDTTPCCFAYIARPLPRAHIKEYFYTSGKCSNPAVVFVTRKNRQVCANPEKKWVREYINSLEMS
Q: For B3, which “FRET signal Dok1-CFP / integrin β2-YFP compared with untreated cells” value [3] is on record?
A: Its value is “significantly lower”.

B4: KT18EE, integrin β2 tail fragment (K742-T759) with Ser745 and Ser756 substituted by Glu (peptide)
peptide: KLKEQWNNDNPLFKEATT
notes: also called Ser to Glu substituted KT18 peptide; Ser to Glu substituted β2 tail peptide; source: synthetic peptide, bought: GLBioChem, Shanghai (purity >95%)
Q: Which Kd [2] does the source give for B4 here?
A: The Kd was 8490 µM.
